Results reported in the domain aggregation screens of Martell et al. (2025).

Assay: soluble fraction after stress (log2 fold change); higher = more stays soluble; pooled small domains, quantitative proteomics
Conditions: stress: 50 degC
Outline: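 After stress at 50°C, the amount of each protein still soluble was measured. This was done on pooled custom libraries of small protein domains, using high-throughput quantitative proteomics. The figure given is a base-two log fold change and stands for aggregation propensity, with higher values meaning more protein stays in solution.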

Sequence	soluble fraction (log2)
HMEPMTDQQILEGFAEFKRQNPDLMNRPATQAIVNLTLPGGTPISFRSGAGAAALNQYLESIGMRAGP	0.202
HMSSTPEPPQAVLDLVNLREQARAGKDWTQSDAFRQQIAALGWTVKDTKDGPVVSLSPTTTE	0.0968
HMWPQIAGFADRFGLSDTERRIVTLMSHGRSRKIIASTLGYSQNTIRNYTRNIYAKAGVHSKQELLDLLDP	-2.13
HMEMELNHVARRAGRLSGFLKGELRLSTGLMNRLKWSNAILVNGKPARTNAQVEPGDRITVILD	-0.976
HMKSVQIPQSITVKEFSQAIEVSVADVIKKLMSMGVMVSQNKEINVDTAILVGEEFGVTVNVA	0.0996
HMSTDNINYKNILIASLLIHAAKIDENYTENEKNIIKKALIELDEIDSKKADEIMILAEKKE	-0.221
HMIPPGTITIEGAITKVPVFLDGKQIGTVPLTKEDVEPGKYRIRVLGVGRVITIDPGEKENVLFSGEDLGL	-0.142
HMGDVATVKLDNNGLLNMRKSDARGADIVARIPNGTVVQVLNRETEWTQVRYDGKEGYVMSSFLQFAE	0.199
HMTGNWRQMHKVKSKETIYGIAKEYGITVDELTKANPGMEAPGYTLKKGDYIFIPYATADANV	0.399
HMSLSDDIAQTLRQLGFDRDVSETLANDVLPAMPTRQDVIDLLGTLGIEKHVAADFANFVVLN	-0.723
HMQLTVAVLIKNISKGQVISQGFLGFEARPERQIRGAYTNISEVLGRKAKSNIAVGTILKARHLDT	-2.94
HMGNGALLTLTVKERQVIQLVAEGKSNKQIARDLNVTPETIKSHMKNIFAKLKVDNRAQAAVMVQQ	-0.638
HMRHYVLKENNGVIAIYKVNQENEAVFKENTQIQVQYLPEVDLINLKKGIYAIGEEKLNSILEDF	-0.613
HMNSNKFANAAAVAVAEKPADSYNPLFIYGPSGVGKTHLLYAIANEIHKHHPDYNIVYIKGDQFTNELIN	-0.0439
HMVVYFGGPVMLERGIVLHTPDISTKGTINVSDDFALTAHKEILDNINKDTSSLQFKLAIGH	-0.895
HMGGKWKAIIIYHLKNGPKRFGELRRALISSTETVLSNQLKQLEQDGLVSRQVFGTKPPLKTVYSLTDFG	-3.06
HMKKTTEFAVTPEFQQRLEASPELKAAFQALTPGRQRAHLLFFAAPKQAQTRQARIEKSLPQIMAGKGLN	-0.184
HMFTLNEIIGQKIRNARISAGLTLDELSKMTGISAAQLSSLETGYRRANIDTLYAIAKAIGIDVSNLLKY	-0.46
HMAKPVNISAEPYHYDPTRFRVTFELPRLSDQPRKRIRKVAPAGLDREQALAWAKRLEREVLHELLR	-0.494
HMVPPELEFLQSLMKIEDISELTAAIENNRDAVTDDFKEMLETVIENISGAPDTDPKLLERLKTIRTVLA	0.0197
HMLIIDLPDFTNKKLSELQQWADANQITLKIVEKDVSSKPYDTILEQTPAKNKYEKIVKGSTMTVTVNIK	-0.562
HMNDTVGMNIRRLRKERGMTQGDLADKAGIQRETISKYESNKLTPPSYNLESIEKALKVPAGTLAQ	0.0652
HMPKNEHETKAIGNQTGGRVFLFLNTDNINRDYNMYISKQVKFVREISQEYYGKVAVFEDLYGNLWDLIE	0.149
HMSMNSWFVEKERDNTRIDKFLNEQMADISRSYIQKLIKDDLVTVDLRPVKANYKVKEGDRVEVTLPEPV	0.0182
HMEDIQPSVIFQNNMIDGFKKFGVSFLQNRRNVNVNTLNGLASAGTYPKWQQLLVNKISYIDMLLSTGG	0.0785

Sequence	soluble fraction (log2)
HMMVIMRANATEPQIANVVAYVEKNGLNAHLSRGAERTVIGVVGDIRRVSKETFELMDGVDSVMRIS	-0.356
HMPARTANEEAIRKYLLNHDSITRKETQALLKTGQSAAGRILKEMVENGWLARIGNGRSTGYELR	-0.034
HMHEYSDIEHRILDAAREVFIRKGYDSATMGDIALLAGMSRTSVNYYFRNKERLFEAIFEEII	-2.08
HMYIENIGDYLKSHDIKPSYQRIKVFEYLMQHKNHPTVDMIYKSLVDEIPTLSKTTVYNTLNLFIEKQI	-1.74
HMDRIISTPMPGRVVKIPVTEGEPVAKGATVITISAMKMESEYKSPIDGIVKKIHVSEGDNINANQPLIEI	-0.178
HMQKITPDNWTYIRSLIRQKWSPDQIDQWLKKHPDVGFTVSRETIYQYVKEDRQKDGDLYLSLRRAGKSY	-1.71
HMQLDLNENEKIIFEILQNNKTMQLSNLKTQTELSNKGWDKAIKSLTKQGLAKVSKIDNELIVEFL	-0.249
HMDSIQMKNNSILYYGNTAGYLDAKRNTAVVDPMFRTDEMESYLSEQKGLSVEWASGTYDRLT	0.149
HMREYRITAEEGHPRIDVFLAGRPEIGLSRSRIQALIDEGQVTLNGAMPKARQAVNPGDVIVVRVPDPE	0.263
HMTELVIPDYFSKALAKNKKAKQVFEAFAYSHRKEYLQWITEAKTEETRNKRMATAIEWIAEGKGRNWKYA	-1.69
HMKTGAKLKNLRKMKKLSQEEVAKVLNLSYSTLSRWENDTRIPTYEDLFKLGQFYGVSVDYLSDPN	-0.359
HMRGAIKMAEEQMAGHKKIGSISGTAPTQGELEKKFAMAAAQMGARYYVITGLSNNNYAFGNADIY	-0.316
HMPKAMAIMSEIAGTVHIDDTKKSRHVEVTGVDDNGAPVTKSYLIPFGHRLKVMEGDVLVKGALLT	-0.0964
HMQITSTDEIEKMIDELIAANPEQTKQYQNGNHKVAGWFVGQMMKASKGKANPQMVNNLLQKKL	0.0271
HMKSKNRLTKSYLDSIPGVGRKRKSILLRYFGSIDQIKRASSEDIANVPGIGKITSDLVYNYFNQ	-0.495
HMSNRIDKIKLNHWLNIRKTSLDVLNNLLSKHLNHKINFENLENLDEQAIEKISEVLSIPKNKLLINDDVP	0.16
HMDYYKILGLSTSATLDQIKKAFRQLAIEFHPDKNPNNPTAEDKFQRISEAYAVLSNPEKRAEYDRSY	-0.0923
HMTATKDLPFSTFITEVEKGNITSVDIKGNQIEGTFSNGAKFKTYSPNYPNLVERLADKGVAISAGPS	0.047
HMYPEETVNKILDVSMQLFLEKGYEHTSIQDIVNHLGGLSKGAIYHHFKSKEDILDGVMNKLYQNN	-0.816
HMKSKNILLGEYKGKEVHVGEGKYGPFILYDKKFKSIGAYLTENSLMLKDLTIEDYSKIMKFTENSNSKS	-0.651
HMDEFAGSAKPLADGAAPAGYDVKGNKDSMKYHEPGGRWYDATVAEVWFKTAADAEAAGFVKAGA	0.172
HMSVTIDAGGKVYLQESEIADDQLVPRLVAISNNGYDKPIYLRADKTVGYGRVAEVMSLLNAAGFTKLVLV	-0.0288
HMSPSQFRSKSLLVEINFASRQMDGEILQGDYAGKRLSELTEAEVQELTAWLKQSDRESFVLLQAYLLRSG	-0.881
HMGQPGNWTSYVFKNSDTEPAKPTSSGPIPSGWNDAPTGVGIWWMSKATIDASTGKAGSWSTPIRVTGED	0.0592
HMSTKLLEVNIFDDSKWVNKTIMDSDIPEDILIVMIKRGDEVIVPKGSTIINKGDILVLSANNFDNLLN	-1.63

Sequence	soluble fraction (log2)
HMSYKFDSLAIILNKLDGKETVNVSSLSDELEVSARTVHRYIGTLQVAGFPIEYDKTKNSYIFSEGYTL	-0.874
HMKKRDAEIMLQREFKLTEAIAMVRDRDIQELLPIALYFKVNINQPTAEIRYNLLNIAKSKTQEFIEAFD	-1.96
HMLFKGDTREENVILEFLSKNGTTSSDAIIKQTGLSASEFNQAITMLELKGLALNNGGEKWSL	-0.0779
HMRMTTEQLMSFLKQHFPQVADNFTVRISDEGRLSVEMPVNDKHLRPGGTVSGPSMFALADVAFYLAILQ	-1.16
HMRGLVPEIVGTLEGEIRAGTLAVGQKLPTEAEIMARFDVSRTVVREALSRLQASDLVETRHGIGTFVSAR	-0.368
HMENIIKISASYEGLRVDQFLSNYLKISRSKVQKYISEEKIFLNNVPTKTNRKVKLDDIISYNLNF	-3.01
HMDQESFGYFHVKYADVKQVADLVQKLNIPAVTWADERTRRLVALGSPATLQRISQVLNMVDL	-0.721
HMSPTEQEKIGLFIKKLREEKNLTQEAFASLLKTSQSAVARIESGNQNITIEQLMKIGEVLNHNIVSI	0.0103
HMVSDISTQYQKIINEALDKQPEVKLADIVTMIKEQTSNKVQNGIVENVAKQMNGIEIIKIGQAKGVRRTT	0.116
HMFYNELMNFIVYKDSQKIGKIVNINDKLPQPVFEVLINDKKFMVPIHDDFIEKIDKEKKSIHIVIPDGLL	0.0184
HMDPTHDMHFLVKDQVTGQPLPNMPYRLQLDNGQTLTGRTDALGMTEKISGHSPHIASIEVPY	0.18
HMSRYLLPYAFARTQQVLLEEKSGELTLWMHSGSNLGGISEVTRKYAVQHVTHEPMDALLNRISSAYAN	-3.41
HMAGTPAIVKWFNPTKGFGFVTPKEAGSDALLHASVLAKRGKRWLQEGTLVEVLIEEGPKGLVVSELLTIE	-0.748
HMDKKTMFNEALAKLVSYATAHDNLITMEDVKSFFNGLIDDDSQYKLIYDYLSINKIEIKGFT	0.2
HMSRVHHGFNISIARNRKGLKQAALADMLGISQQRLSQLENQRVVKDEILEKVSEATGVSVEDLKTIE	-0.253
HMGIVTMPGQGSKMRFDFDATGDLPSSTSWRGMFAYANNTKRAYVSTGTTMGGYNGWRQLIAMDEYGNYQT	-0.0345
HMSTNDIFISGDKLVLKNTTGQMDVFDMAGRKVLSSTNNVSEMNVSSLPKGVYVVSASIGGSKMKAKVYK	0.527
HMTKIEYTEQEFNDFIQAYKNNRKMFPEDYIVKTQVVFINKGFSKSQADMIIAQIETRLRLQGE	-0.421
HMKVSNWYFNGAPSATTPPTSQWTTEKDKKAHIGDTFTSLDKSPSPNAGKSWRYTPSYTWEEIV	0.344
HMDRSIGDIIAELRDLSAEQVERVLAHQRETGVRFGEAAVALGYASKEDVLFALSQQFHYPYAPEE	-0.146
HMESRMTYLQKTKLATENLDAKLIDHQQWVAEVLGEDYRGVYSDEYLRRAAKVFAIFVNNLDD	-2.18
HMSGAQIQQLLESRAPQPGMNPDMIVRRKTYMNNVFNALKGALLRVANGSSPEEVKTEVDAAIQVDPDKL	0.0889
HMATPTEHQLQAQARAVVEKAERLLDRASADDREDIINLIEKITDALAAEDFTAVKAPLAELSDILFYLE	-0.418
HMARGRETILLVEDEPAVRGLVHATLRLHGYTVLEARHGIEALLTSTKFVGPIHLLLTDVVMPQMS	0.182
HMNANTILNSQRILTQLGFNPGPIDGAFGAKTKGALNAFYTSIGKSYDGLLDSNELVELQKALDVSGLKN	-0.295
